The chains are these.
B1: SA3856 (antibody, V domains shown)
VH: QMQLVESGGGLIQPGGSLRLSCAASGFTVTSAYMSWVRQAPGKGLEWVSIIYGGGSTYYADSVKGRFTISRDNSKNTLYLQMNSLRAEDTAVYYCTGPYPGRYDYWGRGTLVTVSS
VL: DIQMTQSPSSLSASVGDRVIITCRASQDIRTSLAWFQQRLGEAPRSLIYDASSLQNGVPSKFRGSGSGTDFTLTISSLQPEDFATYYCQQYKTVPLTFGGGTKVEIK
B2: SA4053 (antibody, V domains shown)
VH: EVQLVQSGGGLVQPGGSLRLSCADSGFTFSSYWMSWVRQVPGKGLEWVANIKQDGSEKYYVDSVKGRFTISRDNAKNSLYLQMNSLRAEDTAVYYCARDVGRGYCSSTSCYRFGGREDFFDYWGQGTLVTVSS
VL: QLVLTQPPSVSAAPGQRVTISCSGSFSNVGNNFVSWYRHLPGTAPELLIYDNNQRPSGIPDRFSASKSGTSATLAITGLHTGDEADYYCGTWDTSLSGVVFGGGTKLTVL
B3: SA3838 (antibody, V domains shown)
VH: QVQLVESGAEVKKPGASVRVSCKISGYIFTELSIHWVRQAPGKGLEWMGGFDPEEGKTIYAQKFQGRVTMTEDTSTDTAYMELSSLRSEDTAVYYCAKIGHLGDFWYWGQGTLITVSS
VL: QSALTQPASVSGSPGQSITISCTGTTSDIGSYDYVSWYQQHPGKAPKLIIYGVTRRPSGVSNRFSGSKSGNTASLTISRLLTEDEAEYYCATYTSSATYVFGTGTKVTVL
B4: SA3830 (antibody, V domains shown)
VH: QVQLVESGGGLIQPGRSLSLSCAASGFNFDEYSMHWVRQRPGKGLEWVSGIKYNSNTILYADSVKGRFTVSRDNSKNSLYLQMNSLRAEDTAVYYCARDAMRGGDFDHWGQGTLITVSS
VL: DIQMTQSPSYLSASAGDRVTITCRASQSISDWLAWYQHKPGKAPKLLIYKASRLENGVPSRFRGSGSATDFTLTISSLQAEDVAVYYCQQYYSTTWTFGQGTKVDIK
B5: SA4055 (antibody, V domains shown)
VH: EVQLVQSGGGLVQPGGSLRLSCAASVITVSSNYMSWVRQAPGKGLEWVSVIYPGGSTYYADSVKGRFTISRDKSKNTLYLQMNSLRAEDTAVYYCARDLDIVGGMDVWGQGTTVTVSS
VL: QSALTQPASVSGSPGQSITISCTGTSSDVGDYNLVSWYQQHPGKAPKVMIYDVSHRPSGVSNRFSGSKSGNTASLTISGLQAEDEADYYCSSYTSSTTVVFGGGTKLTVL
B6: SA4056 (antibody, V domains shown)
VH: B5 VH with E1Q, V5Q, Q6E
VL: DIQMTQSPSTLSASVGDRVTITCRASQSISRWLAWYQQKPGQAPKLLIYAASTLQSGVPSRFSGSGSGTEFTLTISSLQPDDFATYYCQQYDSYPRTFGQGTKVDIK
B7: SA4040 (antibody, V domains shown)
VH: EVQLVQSGAEVKKPGASVKVSCKASGYTFTGYYMHWARQAPGQGLEWMGWINPNSGGTNYAQKFQGRVTMTRDTSITTAYMELSRLTSDDTAVYYCARDQAFSMVRGVTDYWGQGTLVTVSS
VL: QSALTQPPSASGSPGQSVIISCTGSSSDVGGYNYVAWYQQYPGAAPKLIISEVTKRPSGVPDRFSGSKSGNTASLTISGLQAEDEANYYCSSYAGDNTWIFGGGTKLTVL
B8: SA3779 (antibody, V domains shown)
VH: QVQLVESGGGVVQPGRSLRLSCAASGFTFSSYAMHWVRQAPGKGLEWVAVISYDGSNKYYADSAKGRFTISRDNSKNTLYLQMNSLRAEDTAVYYCARRGHYYDSSGYLYWGHGTLITVSS
VL: DIQMTQSPSSLSASVGDRVTITCRASQRIATYLHWYQQKPGRAPKLLIYAASSLQTGVPSRFSGSGSGTDFTLTINSLQPEDFATYYCQQSYAIPYTFGQGTKLEIK
B9: SA3902 (antibody, V domains shown)
VH: QVQLVQSGAEVRQPGASVKVSCKTSGYAFSYYHIHWVRQAPGQGLEWMGLINPGSGGTNYAQKFQGRVTLTRDTSTSTVYMDLTGLRSEDTAVYYCAGSEQPHYYANGAYRVWGQGTLVTVSS
VL: DIQMTQSPSTLSASVGDRVTITCRASQSISSYLNWYQQKPGKAPKLLIYEVSTLESGVPSRFSGSRSGTEFTLTISSLQPDDFATYYCQQYDTFGGGTKVEIK

Residue numbers refer to the chain shown, from its start. Several values for one entry are separate records, joined by “and”; a condition that tells them apart may be missing. Equal values may be shown once.

One test deals with T1, SARS-CoV-2 스파이크 S1-mFc (SARS-CoV-2, UniProt P0DTC2 16-685).
T1 construct: range 16-685
Nature of the test: competition ELISA: S1-mFc on coated ACE2-His. (ELISA stands for enzyme-linked immunosorbent assay.)
A word on the IC50: it is the concentration at which inhibition is half-maximal. In turn, B1 had an IC50 of 2.11 nM.
Still for that read-out and setting: the result for B2 reads 22 nM; that for B3, 1.2 nM; that for B4, 1.86 nM.
On to B5, for which the IC50 turned out to be 1.88 nM.
Same read-out and setting: then B6, with 1.4 nM; and B7, with 3.1 nM.
As to B8, the half-inhibitory concentration (IC50) amounted to 4.03 nM.
On the same count and under the same terms, the result for B9 reads 3.85 nM.

For the next test, the target named is T2, SARS-CoV-2 spike protein on live SARS-CoV-2 virus (SARS-CoV-2, UniProt P0DTC2 14-1273). Nature of the test: cell-based or functional assay.
Consider B3, for which the “IC50, live SARS-CoV-2 미세중화분석, Vero 세포, 72시간” value is 13.5 nM.
The same measure, in the same setting: then B5, with 3.22 nM and 4.51 nM.
The same measure, in the same setting: then B8, with 45.6 nM.

Another test deals with T3, SARS-CoV-2 RBD-mFc (SARS-CoV-2, UniProt P0DTC2 319-541).
T3 construct: range 319-541
Put plainly: flow cytometry competition: RBD-mFc on HEK293E/ACE2 cells. (In general: A flow cytometer gives signals particle by particle.)
B3 showed an IC50 of 2.99 nM.
Same read-out and setting: the result for B8 reads 2.65 nM.

The target of the next test is T4, SARS-CoV-2 RBD-hFc (SARS-CoV-2, UniProt P0DTC2 319-541). Put plainly: cell-based or functional assay.
Consider B3, for which the “IC50, 세포내 유입(internalization) 억제, HEK293E/ACE2-GFP” value (“IC50 … HEK293E/ACE2-GFP” for short) worked out at 42.8 nM.
Same read-out and setting: the result for B8 reads 27.3 nM.

The next test addresses SARS-CoV 스파이크 [change] (#40150-V08B1, Sino Biological) (SARS-CoV, UniProt P59594 14-667). Put plainly: ELISA, coated S1-His.
Turning to B1, the binding result is “no binding (tested: 50 nM)”.
On the same count and under the same terms, then B2, with “no binding (tested: 50 nM)”; and B3, with “no binding (tested: 50 nM)”; and B4, with “no binding (tested: 50 nM)”.
As for B5, the binding result is reported as “no binding (tested: 50 nM)”.
On the same count and under the same terms, then B6, with “no binding (tested: 50 nM)”.
As for B7, the binding result was “no binding (tested: 50 nM)”.
Still for that read-out and setting: the result for B8 reads “no binding (tested: 50 nM)”; that for B9, “no binding (tested: 50 nM)”.

The target of a further test is T4, SARS-CoV-2 RBD-hFc. Put plainly: cell-based or functional assay. This is another data set of the same source.
On to B1, for which the “IC50 … HEK293E/ACE2-GFP” value was 11.9 nM.
On to B2, for which the “IC50 … HEK293E/ACE2-GFP” value worked out at 62.7 nM.
Same read-out and setting: then B3, with 36.1 nM; and B4, with 13.5 nM; and B5, with 37.1 nM.
The same measure, in the same setting: the result for B6 reads 28.1 nM.
For B7, the “IC50 … HEK293E/ACE2-GFP” value was found to be 30.8 nM.
In the case of B8, the “IC50 … HEK293E/ACE2-GFP” value stood at 18.9 nM.
The same measure, in the same setting: the result for B9 reads 14.9 nM.

A further test has as its target T3, SARS-CoV-2 RBD-mFc. Put plainly: flow cytometry competition: RBD-mFc on HEK293E/ACE2 cells. The source holds these as a separate data set.
In the case of B1, the half-inhibitory concentration (IC50) was 2.67 nM.
The same measure, in the same setting: then B2, with 2.21 nM.
Same read-out and setting: then B3, with 3.38 nM; and B4, with 2.57 nM; and B5, with 2.9 nM.
Same read-out and setting: then B6, with 2.19 nM.
As for B7, the IC50 came out at 1.59 nM.
The same measure, in the same setting: the result for B8 reads 2.84 nM; that for B9, 1.75 nM.

For another test, the target named is T3, SARS-CoV-2 RBD-mFc. Nature of the test: Octet QKe BLI, 1:1 global fit. (In general: Biolayer interferometry detects binding as a change in optical thickness at a sensor tip.)
By Kd is commonly meant the constant that tells how readily two partners part at equilibrium. Read a high Kd as a looser complex. By koff is commonly meant a measure of how fast the partners let go of each other. Read a high koff as a short-lived complex. A word on the kon: it is the second-order rate constant of association. A high value points to faster complex formation. On to B1, for which the Kd is 0.0888 nM, the koff is 4.3e-05 s⁻¹ and the kon was found to be 484000 M⁻¹ s⁻¹.
In the same order, the values of B2 are 0.689 nM, 0.000218 s⁻¹ and 316000 M⁻¹ s⁻¹.
Molecule B4 showed a Kd of 0.782 nM, a koff of 0.000702 s⁻¹ and a kon of 897000 M⁻¹ s⁻¹.
In the same order, the values of B5 are 0.061 nM, 2.36e-05 s⁻¹ and 387000 M⁻¹ s⁻¹.
In turn, B6 displayed a Kd of 0.0907 nM, a koff of 4.32e-05 s⁻¹ and a kon of 477000 M⁻¹ s⁻¹.
The corresponding values for B7 are 0.384 nM, 0.000181 s⁻¹ and 471000 M⁻¹ s⁻¹.
The corresponding values for B8 are 1.05 nM, 0.000223 s⁻¹ and 213000 M⁻¹ s⁻¹.
The corresponding values for B9 are 0.328 nM, 8.12e-05 s⁻¹ and 247000 M⁻¹ s⁻¹.

Another test addresses T2, SARS-CoV-2 spike protein on live …. Nature of the test: cell-based or functional assay. This is another data set of the same source.
B1: the “IC50, live SARS-CoV-2 미세중화분석, Vero 세포” value worked out at 137 nM.
B2: the “IC50, live SARS-CoV-2 미세중화분석, Vero 세포” value amounted to 346 nM.
Still for that read-out and setting: then B3, with 9.4 nM; and B4, with 231 nM.
Same read-out and setting: the result for B5 reads 7 nM; that for B6, 11.3 nM; that for B7, 8.14 nM.
The same measure, in the same setting: then B8, with 56.8 nM; and B9, with 37.3 nM.

The target in a further test is T3, SARS-CoV-2 RBD-mFc. Put plainly: competition ELISA: RBD-mFc on coated ACE2-His.
Molecule B3 had a 50% inhibitory concentration (IC50) of 1.62 nM.
Same read-out and setting: the result for B8 reads 7.96 nM.

The next test concerns the target SARS-CoV RBD-His (#40150-V08B2, Sino Biological) (SARS-CoV, UniProt P59594 306-527). Put plainly: ELISA, coated His-tagged antigen.
With B1, the binding result is on record as “no binding”.
The same measure, in the same setting: the result for B2 reads “no binding”.
The same measure, in the same setting: the result for B3 reads “no binding”; that for B4, “no binding”.
Still for that read-out and setting: the result for B5 reads “no binding”; that for B6, “no binding”.
For the molecule B7, the binding result is given as “no binding”.
Regarding B8, the binding result was “no binding”.
As to B9, the binding result is recorded as “no binding”.

For another test, the target named is T3, SARS-CoV-2 RBD-mFc. Nature of the test: competition ELISA: RBD-mFc on coated ACE2-His. The source holds these as a separate data set.
Turning to B1, the IC50 came to 25.1 nM.
On the same count and under the same terms, the result for B2 reads 40.6 nM.
The same measure, in the same setting: then B3, with 2.2 nM; and B4, with 10.2 nM.
Same read-out and setting: then B5, with 0.144 nM; and B6, with 1.86 nM; and B7, with 25.3 nM.
Molecule B8 came in with an IC50 of 11.2 nM.
Still for that read-out and setting: the result for B9 reads 12.4 nM.

The target of a further test is T1, SARS-CoV-2 스파이크 S1-mFc. Nature of the test: competition ELISA: S1-mFc on coated ACE2-His. The source holds these as a separate data set.
As for B3, the IC50 worked out at 2.25 nM.
Same read-out and setting: the result for B8 reads 3.59 nM.

The record behind these values is patent KR20220054080A (dated 2022).
